B1: peptide HD2 (from tick evasin EVA4) / CCL1 (biotinylated, synthetic) (parent)
chain 1: EEDDYTAYAPLTCYFT
chain 2: KSMQVPFSRCCFSFAEQEIPLRAILCYRNTSSICSNEGLIFKLKRGKEACALDTVGWVQRHRKMLRHCPSKRK
B2: peptide HD2 (from tick evasin EVA4) / CXCL14 (biotinylated, synthetic) (parent)
chain 1: EEDDYTAYAPLTCYFT
chain 2: SKCKCSRKGPKIRYSDVKKLEMKPKYPHCEEKMVIITTKSVSRYRGQEHCLHPKLQSTKRFIKWYNAWNEKRRVYEE
B3: peptide HD2 (from tick evasin EVA4) / CXCL11 (biotinylated, synthetic) (parent)
chain 1: EEDDYTAYAPLTCYFT
chain 2: FPMFKRGRCLCIGPGVKAVKVADIEKASIMYPSNNCDKIEVIITLKENKGQRCLNPKSKQARLIIKKVERKNF

Variants of: B1
Settings: with CCL1 (biotinylated, synthetic); scale: log2

Q: With chain 1 Y5V as the variant, how does the enrichment read?
A: -8.5

Q: Which enrichment does the source give for chain 1 Y5S here?
A: -8.33

Q: With chain 1 Y5E as the variant, how does the enrichment read?
A: -2.71

Q: How did the enrichment turn out when chain 1 A7C was run?
A: -9.07

Q: With chain 1 Y8Q as the variant, how does the enrichment read?
A: -5.59

Q: How did the enrichment turn out when chain 1 Y8G was run?
A: -7.94

Q: chain 1 Y8C was tested. Which enrichment did it give?
A: -8.91

Q: For chain 1 Y8S, which enrichment is on record?
A: -8.97

Q: For chain 1 Y8E, which enrichment is on record?
A: -5.41

Q: How did the enrichment turn out when chain 1 Y8T was run?
A: -7.71

Q: With chain 1 Y8K as the variant, how does the enrichment read?
A: -5.3

Q: How did the enrichment turn out when chain 1 Y8H was run?
A: -6.8

Q: With chain 1 Y8N as the variant, how does the enrichment read?
A: -7.36

Q: How did the enrichment turn out when chain 1 Y8R was run?
A: -7.41

Q: With chain 1 P10H as the variant, how does the enrichment read?
A: -7.18

Q: With chain 1 P10I as the variant, how does the enrichment read?
A: -7.67

Q: With chain 1 P10Y as the variant, how does the enrichment read?
A: -7.79

Q: Which enrichment does the source give for chain 1 P10F here?
A: -8.64

Q: Which enrichment does the source give for chain 1 P10T here?
A: -7.09

Q: With chain 1 P10R as the variant, how does the enrichment read?
A: -8.31

Q: How did the enrichment turn out when chain 1 P10N was run?
A: -7.25

Q: How did the enrichment turn out when chain 1 P10K was run?
A: -6.19

Q: With chain 1 P10S as the variant, how does the enrichment read?
A: -8.42

Q: chain 1 P10C was tested. Which enrichment did it give?
A: -8.95

Q: How did the enrichment turn out when chain 1 E1C was run?
A: -8.98

Q: Which enrichment does the source give for chain 1 L11P here?
A: -7.33

Q: chain 1 L11E was tested. Which enrichment did it give?
A: -7.4

Q: For chain 1 L11N, which enrichment is on record?
A: -7.68

Q: How did the enrichment turn out when chain 1 A9K was run?
A: -5.86

Q: With chain 1 A9H as the variant, how does the enrichment read?
A: -7.44

Q: Which enrichment does the source give for chain 1 A9C here?
A: -9.32

Q: For chain 1 A9D, which enrichment is on record?
A: -7.46

Q: Which enrichment does the source give for chain 1 E2K here?
A: -4.38

Q: With chain 1 E2C as the variant, how does the enrichment read?
A: -9.24

Q: With chain 1 C13I as the variant, how does the enrichment read?
A: -7.4

Q: For chain 1 C13K, which enrichment is on record?
A: -8.35

Q: Which enrichment does the source give for chain 1 C13H here?
A: -7.88

Q: Which enrichment does the source give for chain 1 C13L here?
A: -10.5

Q: How did the enrichment turn out when chain 1 Y14D was run?
A: -6.76

Q: Which enrichment does the source give for chain 1 Y14P here?
A: -8.08

Q: Which enrichment does the source give for chain 1 Y14G here?
A: -9.73

Q: With chain 1 Y14K as the variant, how does the enrichment read?
A: -7.4

Q: For chain 1 Y14N, which enrichment is on record?
A: -6.13

Q: With chain 1 Y14E as the variant, how does the enrichment read?
A: -7.99

Q: Which enrichment does the source give for chain 1 D4Q here?
A: -5.71

Q: With chain 1 D4C as the variant, how does the enrichment read?
A: -8.47

Q: How did the enrichment turn out when chain 1 D4R was run?
A: -6.32

Q: How did the enrichment turn out when chain 1 D4T was run?
A: -7.11

Q: Which enrichment does the source give for chain 1 D4V here?
A: -9.08

Q: Which enrichment does the source give for chain 1 D4K here?
A: -6.11

Q: For chain 1 D4G, which enrichment is on record?
A: -5.45

Variants of: B2
Settings: with CXCL14 (biotinylated, synthetic); scale: log2

Q: How did the enrichment turn out when chain 1 A7C was run?
A: -8.1

Q: chain 1 T16Y was tested. Which enrichment did it give?
A: -5.41

Q: With chain 1 T16R as the variant, how does the enrichment read?
A: -7.45

Q: How did the enrichment turn out when chain 1 T16F was run?
A: -5.71

Q: chain 1 L11K was tested. Which enrichment did it give?
A: -5.25

Q: chain 1 L11P was tested. Which enrichment did it give?
A: -6.36

Q: How did the enrichment turn out when chain 1 L11E was run?
A: -6.43

Q: For chain 1 L11G, which enrichment is on record?
A: -8.51

Q: For chain 1 E1H, which enrichment is on record?
A: -6.24

Q: How did the enrichment turn out when chain 1 E1K was run?
A: -4.33

Q: How did the enrichment turn out when chain 1 E1G was run?
A: -5.5

Q: How did the enrichment turn out when chain 1 E1A was run?
A: -5.59

Q: For chain 1 E1N, which enrichment is on record?
A: -6.84

Q: With chain 1 E1M as the variant, how does the enrichment read?
A: -5.07

Q: For chain 1 E1C, which enrichment is on record?
A: -8.01

Q: How did the enrichment turn out when chain 1 E1R was run?
A: -6.24

Q: chain 1 E1P was tested. Which enrichment did it give?
A: -5.8

Q: How did the enrichment turn out when chain 1 E2H was run?
A: -5.9

Q: For chain 1 E2P, which enrichment is on record?
A: -5.31

Q: With chain 1 E2Q as the variant, how does the enrichment read?
A: -3.16

Q: chain 1 E2A was tested. Which enrichment did it give?
A: -5.18

Q: With chain 1 E2K as the variant, how does the enrichment read?
A: -3.41

Q: Which enrichment does the source give for chain 1 E2R here?
A: -5.39

Q: Which enrichment does the source give for chain 1 E2C here?
A: -8.27

Q: How did the enrichment turn out when chain 1 F15D was run?
A: -6.86

Q: Which enrichment does the source give for chain 1 F15K here?
A: -5.27

Q: For chain 1 F15T, which enrichment is on record?
A: -5.59

Q: Which enrichment does the source give for chain 1 F15P here?
A: -5.62

Q: How did the enrichment turn out when chain 1 F15E was run?
A: -7.19

Q: With chain 1 D4A as the variant, how does the enrichment read?
A: -6.34

Q: With chain 1 D4C as the variant, how does the enrichment read?
A: -7.5

Q: With chain 1 D4K as the variant, how does the enrichment read?
A: -5.14

Q: For chain 1 D4R, which enrichment is on record?
A: -5.35

Q: chain 1 D4H was tested. Which enrichment did it give?
A: -6.03

Q: For chain 1 D4G, which enrichment is on record?
A: -4.48

Q: For chain 1 D4L, which enrichment is on record?
A: -9.04

Q: With chain 1 D4T as the variant, how does the enrichment read?
A: -6.14

Q: With chain 1 D4Q as the variant, how does the enrichment read?
A: -4.74

Q: With chain 1 D4V as the variant, how does the enrichment read?
A: -8.11

Q: For chain 1 A9R, which enrichment is on record?
A: -6.78

Q: With chain 1 A9C as the variant, how does the enrichment read?
A: -8.35

Q: For chain 1 A9P, which enrichment is on record?
A: -6.07

Q: Which enrichment does the source give for chain 1 C13Y here?
A: -7.01

Q: For chain 1 C13L, which enrichment is on record?
A: -9.57

Q: Which enrichment does the source give for chain 1 C13H here?
A: -6.91

Q: How did the enrichment turn out when chain 1 C13M was run?
A: -7.78

Q: chain 1 C13F was tested. Which enrichment did it give?
A: -6.89

Q: How did the enrichment turn out when chain 1 C13Q was run?
A: -7.64

Q: How did the enrichment turn out when chain 1 C13R was run?
A: -8.81

Q: Which enrichment does the source give for chain 1 C13I here?
A: -6.44

Q: chain 1 C13K was tested. Which enrichment did it give?
A: -7.38

Q: How did the enrichment turn out when chain 1 Y14M was run?
A: -7.23

Q: For chain 1 Y14N, which enrichment is on record?
A: -5.16

Q: chain 1 Y14F was tested. Which enrichment did it give?
A: -6.35

Q: For chain 1 Y14D, which enrichment is on record?
A: -5.79

Q: Which enrichment does the source give for chain 1 Y14P here?
A: -7.11

Q: How did the enrichment turn out when chain 1 Y14G was run?
A: -8.76

Q: Which enrichment does the source give for chain 1 Y14I here?
A: -5.53

Q: With chain 1 Y14T as the variant, how does the enrichment read?
A: -7.2

Q: Which enrichment does the source give for chain 1 Y14K here?
A: -6.43

Q: How did the enrichment turn out when chain 1 Y14R was run?
A: -8.35

Q: chain 1 Y14S was tested. Which enrichment did it give?
A: -7.93

Q: For chain 1 Y8C, which enrichment is on record?
A: -7.94

Q: chain 1 Y8R was tested. Which enrichment did it give?
A: -6.45

Q: For chain 1 Y8S, which enrichment is on record?
A: -8.01

Q: For chain 1 Y8A, which enrichment is on record?
A: -7.04

Q: For chain 1 Y8G, which enrichment is on record?
A: -6.97

Q: With chain 1 Y8K as the variant, how does the enrichment read?
A: -4.33

Q: For chain 1 Y8E, which enrichment is on record?
A: -4.45

Q: For chain 1 Y8Q, which enrichment is on record?
A: -4.62

Q: For chain 1 Y8H, which enrichment is on record?
A: -5.83

Q: With chain 1 Y8T as the variant, how does the enrichment read?
A: -6.74

Q: How did the enrichment turn out when chain 1 Y5K was run?
A: -3.86

Q: Which enrichment does the source give for chain 1 Y5A here?
A: -5.33

Q: With chain 1 Y5E as the variant, how does the enrichment read?
A: -1.74

Q: With chain 1 Y5G as the variant, how does the enrichment read?
A: -5.37

Q: How did the enrichment turn out when chain 1 Y5S was run?
A: -7.36

Q: Which enrichment does the source give for chain 1 Y5R here?
A: -5.31

Q: chain 1 Y5T was tested. Which enrichment did it give?
A: -5.93

Q: How did the enrichment turn out when chain 1 Y5D was run?
A: -5.31

Q: With chain 1 Y5Q as the variant, how does the enrichment read?
A: -3.62

Q: For chain 1 Y5N, which enrichment is on record?
A: -5.97

Q: chain 1 Y5V was tested. Which enrichment did it give?
A: -7.53

Q: For chain 1 Y5P, which enrichment is on record?
A: -4.99

Q: For chain 1 D3A, which enrichment is on record?
A: -5.29

Q: For chain 1 D3M, which enrichment is on record?
A: -6.1

Q: chain 1 D3V was tested. Which enrichment did it give?
A: -7.6

Q: How did the enrichment turn out when chain 1 D3Q was run?
A: -3.25

Q: Which enrichment does the source give for chain 1 D3L here?
A: -8.51

Q: How did the enrichment turn out when chain 1 D3S was run?
A: -7.81

Q: chain 1 D3W was tested. Which enrichment did it give?
A: -5.18

Q: For chain 1 D3R, which enrichment is on record?
A: -5.71

Q: For chain 1 D3K, which enrichment is on record?
A: -3.62

Q: Which enrichment does the source give for chain 1 D3H here?
A: -5.23

Q: With chain 1 D3C as the variant, how does the enrichment read?
A: -8.16

Q: How did the enrichment turn out when chain 1 P10K was run?
A: -5.23

Q: With chain 1 P10N as the variant, how does the enrichment read?
A: -6.28

Q: How did the enrichment turn out when chain 1 P10R was run?
A: -7.34

Q: For chain 1 P10I, which enrichment is on record?
A: -6.7

Q: How did the enrichment turn out when chain 1 P10C was run?
A: -7.98

Q: With chain 1 P10Y as the variant, how does the enrichment read?
A: -6.83

Q: How did the enrichment turn out when chain 1 P10T was run?
A: -6.13

Variants of: B3
Settings: with CXCL11 (biotinylated, synthetic); scale: log2

Q: Which enrichment does the source give for chain 1 Y8Q here?
A: -3.5

Q: With chain 1 Y8R as the variant, how does the enrichment read?
A: -5.32

Q: chain 1 Y8P was tested. Which enrichment did it give?
A: -5

Q: For chain 1 Y8K, which enrichment is on record?
A: -3.21

Q: How did the enrichment turn out when chain 1 Y14M was run?
A: -6.11

Q: Which enrichment does the source give for chain 1 Y14R here?
A: -7.23

Q: How did the enrichment turn out when chain 1 Y14E was run?
A: -5.9

Q: Which enrichment does the source give for chain 1 Y14P here?
A: -5.99

Q: Which enrichment does the source give for chain 1 Y14D here?
A: -4.67

Q: For chain 1 Y14I, which enrichment is on record?
A: -4.41

Q: How did the enrichment turn out when chain 1 Y14N was run?
A: -4.04

Q: chain 1 Y14K was tested. Which enrichment did it give?
A: -5.3

Q: chain 1 Y14S was tested. Which enrichment did it give?
A: -6.81

Q: Which enrichment does the source give for chain 1 Y14Q here?
A: -5.19

Reference: paper PMC11969024, “Development of chemokine network inhibitors using combinatorial saturation mutagenesis” (Communications Biology, 2025)
